Laboratory results taken from US20230257440A1 (published 2023).

Target: T1, RAS G12V (KRAS, HRAS or NRAS) peptide on HLA-DRA*01:01 / HLA-DRB1*01:01 (human)
T1 peptide: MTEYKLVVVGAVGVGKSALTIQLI
Test: cytokine release
Protocol: FIG. 2 is a graph showing IFN-γ secretion (spots/3e4 cells) measured by ELISPOT assay following co-culture of effector cells with target cells. […] Target cells were […] or HEK 293 cells independently transfected with one of the HLA Class II heterodimers shown. The target cells were loaded with the G12V 24-mer peptide and were cultured in the presence or absence of an antibody which blocked the respective HLA Class II molecule previously transfected. Target cells cultured with DMSO served as a negative control.
Reactivity was tested by IFNγ-secretion using ELISpot assay. […] This reactivity was blocked by an antibody which recognized the DRA*01:01/DRB1*01:01 heterodimer.

B1: 4304 TCR1 (TCR, V domains shown)
Valpha: AQRVTQPEKLLSVFKGAPVELKCNYSYSGSPELFWYVQYSRQRLQLLLRHISRESIKGFTADLNKGETSFHLKKPFAQEEDSAMYYCALLQGAQKLVFGQGTRLTINP
Vbeta: SAVISQKPSRDICQRGTSLTIQCQVDSQVTMMFWYRQQPGQSLTLIATANQGSEATYESGFVIDKFPISRPNLTFSTLTVSNMSPEDSSIYLCSVESGQDYGYTFGSGTRLTVV
  binding result: recognises
